# Where a chain is given by its changes, count along the chain named. In names and notes the source's numbering stands.
# B1: 2F5 L100AS-V100DS (antibody, V domains shown)
# VH: RITLKESGPPLVKPTQTLTLTCSFSGFSLSDFGVGVGWIRQPPGKALEWLAIIYSDDDKRYSPSLNTRLTITKDTSKNQVVLVMTRVSPVDTATYFCAHRRGPTTSFGSPIARGPVNAMDVWGQGITVTISS
# VL: ALQLTQSPSSLSASVGDRITITCRASQGVTSALAWYRQKPGSPPQLLIYDASSLESGVPSRFSGSGSGTEFTLTISTLRPEDFATYYCQQLHFYPHTFGGGTRVDVRR
# B2: 2F5 V100DS (antibody, V domains shown)
# VH: B1 VH with S106L
# VL: B1 VL
# B3: 2F5 L100AW-V100DW (antibody, V domains shown)
# VH: B1 VH with S106W, S109W
# VL: B1 VL
# B4: 2F5 F100BS (antibody, V domains shown)
# VH: B1 VH with S106L, F107S, S109V
# VL: B1 VL
# B5: 2F5 V100DW (antibody, V domains shown)
# VH: B1 VH with S106L, S109W
# VL: B1 VL
# B6: 2F5 L100AW (antibody, V domains shown)
# VH: B1 VH with S106W, S109V
# VL: B1 VL
# B7: 2F5 (antibody, V domains shown)
# VH: B1 VH with S106L, S109V
# VL: B1 VL
# B8: 2F5 F100BW (antibody, V domains shown)
# VH: B1 VH with S106L, F107W, S109V
# VL: B1 VL
# B9: 2F5 L100AS-F100BS (antibody, V domains shown)
# VH: B1 VH with F107S, S109V
# VL: B1 VL
# B10: 2F5 F100BS-I100FS (antibody, V domains shown)
# VH: B1 VH with S106L, F107S, S109V, I111S
# VL: B1 VL
# B11: 2F5 I100FS (antibody, V domains shown)
# VH: B1 VH with S106L, S109V, I111S
# VL: B1 VL
# B12: 2F5 L100AS (antibody, V domains shown)
# VH: B1 VH with S109V
# VL: B1 VL
# B13: 2 (Heavy chain: G54S) (antibody, V domains shown)
# VH: QVQLVQSGGQMKKPGESMRISCRASGYEFIDCTLNWIRLAPGKRPEWMGWLKPRGGAVNYARPLQGRVTMTRDVYSDTAFLELRSLTVDDTAVYFCTRGKNCDYNWDFEHWGRGTPVIVSS
# VL: EIVLTQSPGTLSLSPGETAIISCRTSQYGSLAWYQQRPGQAPRLVIYSGSTRAAGIPDRFSGSRWGPDYNLTISNLESGDFGVYYCQQYEFFGQGTKVQVDI
# B14: C32AC98S (antibody, V domains shown)
# VH: B13 VH with C32S, C102A
# VL: B13 VL
# B15: Insertion-AA (antibody, V domains shown)
# VH: B13 VH
# VL: EIVLTQSPGTLSLSPGETAIISCRTSQYGSAALAWYQQRPGQAPRLVIYSGSTRAAGIPDRFSGSRWGPDYNLTISNLESGDFGVYYCQQYEFFGQGTKVQVDI
# Biological target: gp41 MPER peptide (residues 657 to 669 of gp41 linked to a C-terminal C9 tag)
# Assay: SPR
row,Binder,Kd
1,B1,36.7 nM
2,B2,14.3 nM
3,B3,12.8 nM
4,B4,11.9 nM
5,B5,11.9 nM
6,B6,11.3 nM
7,B7,9.5 nM
8,B8,11.2 nM
9,B9,10.9 nM
10,B10,46.9 nM
11,B11,27.3 nM
12,B12,10.8 nM

# Biological target: Du156.12
# Assay: ELISA
row,Binder,EC50
1,B13,0.072 µg/mL
2,B14,0.048 µg/mL
3,B15,2.02 µg/mL

# — patent publication US20120244166A1 (published 2012)
